The target in the test is SARS-CoV-2 prototype receptor binding domain (residues 319-541) (SARS-CoV-2, UniProt P0DTC2 319-541). The test is described as follows: SPR.

“And” between values parts separate entries of the source, which are not always exact repeats. Identical values can stand only once.

B1: equine angiotensin converting enzyme 2 (residues 19-615) (receptor)
chain: STTEDLAKTFLEKFNSEAEELSHQSSLASWSYNTNITDENVQKMNEAGARWSAFYEEQCKLAKTYPLEEIQNLTVKRQLQALQQSGSSVLSADKSKRLNEILNTMSTIYSTGKVCNPSNPQECLLLEPGLDAIMENSKDYNQRLWAWEGWRSEVGKQLRPLYEEYVVLKNEMARANNYEDYGDYWRGDYEAEGPSGYDYSRDQLIEDVERTFAEIKPLYEHLHAYVRAKLMDTYPSHINPTGCLPAHLLGDMWGRFWTNLYSLTVPFGQKPNIDVTDAMVDQSWDAKRIFEEAEKFFVSVGLPNMTQGFWENSMLTEPGDGRKVVCHPTAWDLGKGDFRIKMCTKVTMDDFLTAHHEMGHIQYDMAYAVQPYLLRNGANEGFHEAVGEIMSLSAATPNHLKAIGLLPPDFYEDSETEINFLLKQALTIVGTLPFTYMLEKWRWMVFKGEIPKEEWMKKWWEMKREIVGVVEPVPHDETYCDPAALFHVANDYSFIRYYTRTIYQFQFQEALCQTAKHEGPLHKCDISNSTEAGQKLLQMLSLGKSEPWTLALERIVGVKNMDVRPLLNYFEPLFTWLKDQNKNSFVGWSTNWSPYAD
Regarding B1, the Kd was 87.7 nM and 200 nM.

The record behind these values is PMC9210341 (2022).
